Here are results for two molecules from US20240376171A1 (Hoffmann-La Roche, published 2024).

Assay [1] concerns the target T1, PD1 on activated human CD4 and CD8 T cells (human, UniProt Q15116 25-288).
T1 construct: whole, on cells; Endogenous PD1 on CD3/CD28-stimulated T cells; also called human PD1; PD1 receptor
Description: flow cytometry, CD3/CD28-activated human PBMCs gated on CD3+CD4+ T cells, PE anti-human Fc secondary antibody; TA constructs pre-incubated with Matriptase, unmasked controls not. As to the method: (§1) Three formats of TA PD1-IL2v molecules and respective controls were assessed for their capacity to bind to activated PD1 positive CD8 T cells and CD4 T cells within PBMCs in comparison to the respective unmasked molecules.
(§2) PBMCs were purchased from Biomex from a healthy donor (Lot 5000729PB). The PBMCs were stimulated for three days with CD3 and CD28 to induce upregulation of PD1 on T cells. Therefore, PBMCs were seeded in medium (RPMI1640, 10% FCS, 2 mM Glutamine) into cell culture flasks that were coated for 1 hour at 37° C. with 1 μg/ml CD3 (clone OKT3, 302914, BioLegend). CD28 was added in solution to the PBMCs at a concentration of 1 μg/ml (clone CD28.2, 302914, BioLegend). After three days, PBMCs were harvested and transferred into a 96 well round bottom plate (200′000 cells per well). The cells were washed with FACS buffer (PBS, 2% FBS, 5 mM EDTA, 0.025% NaN3) and stained with 30 μl of corresponding TA PD1-IL2v constructs in FACS buffer for 30 min at 4° C. Prior to the staining, 20 μg of the TA PD1-IL2v constructs were digested with 4 μl Matriptase (Enzo ˜2.5 U/μl, ALX-201-246-U25, Lot 12152015, or without Matriptase for the unmasked controls) for 2 hours at 37° C. in 40 μl Matriptase buffer (50 mM Tris, 50 mM NaCl, 0.01% Tween 20, pH 9.0). After the staining, the cells were washed twice with FACS buffer to remove unbound molecules. Then 30 μl of the diluted PE anti-human Fc specific secondary antibody (1:50 dilution, 109-116-170, Jackson ImmunoResearch) was added to the cells. After 30 min incubation at 4° C. the cells were washed twice with FACS buffer. To detect T cells, PBMCs were stained with 30 μl of a mixture of CD3 PE/Cyanine7 (clone UCHT1, 300420, BioLegend), CD4 FITC (clone RPA-T4, 300528, BioLegend) and CD8 APC/Cyanine7 (clone HIT8a, 300926, BioLegend) for 30 min at 4° C. The unbound antibodies were removed by washing twice with FACS buffer. Finally the cells resuspended in 150 μl FACS buffer and measured using a BD Fortessa gating on CD3+CD4+ cells (CD4 T cells) and CD3+CD8+ cells (CD8 T cells).
Background: Flow cytometry measures light scatter and fluorescence of single cells or particles in a stream.

Assay [2] has as its target T1, PD1 on activated human CD4 and CD8 T …. Nature of the assay: flow cytometry, CD3/CD28-activated human PBMCs gated on CD3+CD8+ T cells, PE anti-human Fc secondary antibody; TA constructs pre-incubated with Matriptase, unmasked controls not. The procedure:
as §1, §2

The target is the same in assay [3]. Nature of the assay: flow cytometry on CD3/CD28-activated T cells (CD4 and CD8) within human PBMCs; construct digested with matriptase; PE anti-human Fc secondary. As to the method: as §2, with “Then 30 μl of the diluted PE anti-human Fc specific secondary antibody (1:50 dilution, 109-116-170, Jackson ImmunoResearch) was added to the cells. After 30 min incubation at 4° C. the cells were washed twice with FACS buffer. To detect T cells, PBMCs were stained with 30 μl of a mixture of CD3 PE/Cyanine7 (clone UCHT1, 300420, BioLegend), CD4 FITC (clone RPA-T4, 300528, BioLegend) and CD8 APC/Cyanine7 (clone HIT8a, 300926, BioLegend) for 30 min at 4° C. The unbound antibodies were removed by washing twice with FACS buffer.” left out

Assay [4] shares this target. Nature of the assay: flow cytometry on CD3/CD28-activated T cells (CD4 and CD8) within human PBMCs; no matriptase; PE anti-human Fc secondary. The procedure:
as §2, with “Then 30 μl of the diluted PE anti-human Fc specific secondary antibody (1:50 dilution, 109-116-170, Jackson ImmunoResearch) was added to the cells. After 30 min incubation at 4° C. the cells were washed twice with FACS buffer. To detect T cells, PBMCs were stained with 30 μl of a mixture of CD3 PE/Cyanine7 (clone UCHT1, 300420, BioLegend), CD4 FITC (clone RPA-T4, 300528, BioLegend) and CD8 APC/Cyanine7 (clone HIT8a, 300926, BioLegend) for 30 min at 4° C. The unbound antibodies were removed by washing twice with FACS buffer.” left out

T1 sequence (Q15116 25-288): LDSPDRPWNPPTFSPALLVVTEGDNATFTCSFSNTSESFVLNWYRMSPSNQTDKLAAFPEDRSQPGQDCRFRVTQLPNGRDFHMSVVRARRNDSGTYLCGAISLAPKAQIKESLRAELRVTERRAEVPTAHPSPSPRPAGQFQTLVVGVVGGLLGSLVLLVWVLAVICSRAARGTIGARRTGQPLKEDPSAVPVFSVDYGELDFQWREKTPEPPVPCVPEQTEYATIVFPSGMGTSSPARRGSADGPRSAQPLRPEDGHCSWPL

B1: human TA PD1-IL2v, MT204, 2xPQARK, N-term (antibody)
light: DIVMTQSPDSLAVSLGERATINCKASESVDTSDNSFIHWYQQKPGQSPKLLIYRSSTLESGVPDRFSGSGSGTDFTLTISSLQAEDVAVYYCQQNYDVPWTFGQGTKVEIKRTVAAPSVFIFPPSDEQLKSGTASVVCLLNNFYPREAKVQWKVDNALQSGNSQESVTEQDSKDSTYSLSSTLTLSKADYEKHKVYACEVTHQGLSSPVTKSFNRGEC
heavy: EVQLLESGGGLVQPGGSLRLSCAASGFSFSSYTMSWVRQAPGKGLEWVATISGGGRDIYYPDSVKGRFTISRDNSKNTLYLQMNSLRAEDTAVYYCVLLTGRVYFALDSWGQGTLVTVSSASTKGPSVFPLAPSSKSTSGGTAALGCLVKDYFPEPVTVSWNSGALTSGVHTFPAVLQSSGLYSLSSVVTVPSSSLGTQTYICNVNHKPSNTKVDKKVEPKSCDKTHTCPPCPAPEAAGGPSVFLFPPKPKDTLMISRTPEVTCVVVDVSHEDPEVKFNWYVDGVEVHNAKTKPREEQYNSTYRVVSVLTVLHQDWLNGKEYKCKVSNKALGAPIEKTISKAKGQPREPQVCTLPPSRDELTKNQVSLSCAVKGFYPSDIAVEWESNGQPENNYKTTPPVLDSDGSFFLVSKLTVDKSRWQQGNVFSCSVMHEALHNHYTQKSLSLSPG
chain: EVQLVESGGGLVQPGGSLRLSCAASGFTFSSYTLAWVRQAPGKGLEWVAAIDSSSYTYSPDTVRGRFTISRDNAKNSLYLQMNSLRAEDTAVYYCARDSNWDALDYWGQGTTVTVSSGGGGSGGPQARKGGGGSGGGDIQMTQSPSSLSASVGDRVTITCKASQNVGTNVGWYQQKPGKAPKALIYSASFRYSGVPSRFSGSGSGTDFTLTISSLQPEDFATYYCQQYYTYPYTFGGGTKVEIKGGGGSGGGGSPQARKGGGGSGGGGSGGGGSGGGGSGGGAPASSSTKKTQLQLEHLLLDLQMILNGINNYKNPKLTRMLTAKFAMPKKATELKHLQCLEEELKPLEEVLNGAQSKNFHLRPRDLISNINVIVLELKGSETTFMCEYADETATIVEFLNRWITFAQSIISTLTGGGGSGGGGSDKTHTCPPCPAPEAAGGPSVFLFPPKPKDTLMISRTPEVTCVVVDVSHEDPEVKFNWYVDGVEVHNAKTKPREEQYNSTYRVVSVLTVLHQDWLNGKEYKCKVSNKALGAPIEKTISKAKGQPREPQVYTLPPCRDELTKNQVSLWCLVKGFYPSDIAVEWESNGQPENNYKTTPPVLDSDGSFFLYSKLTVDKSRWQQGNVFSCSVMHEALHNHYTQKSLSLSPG
notes: One-armed human PD1-targeted human IgG PG LALA (knobs-into-holes); MT204 scFv-masked IL2v is fused N-terminally to the hinge of the Fc knob chain, with two PQARK sites; also called P1AG9597; P1AG9597-007
What is called EC50 (read off the curve) is the midpoint of the concentration-response curve. For the molecule B1, the 50% effective concentration (EC50 (read off the curve)) in assay [1] is about 2 nM; in assay [2], about 3 nM. In addition, in assay [3], the “fold binding capacity versus the "in line" and knob/hole formats” value was about 2 fold.

B2: human PD1-IL2v, unmasked, N-term (antibody, human IgG1, kappa, L234A L235A)
light: DIVMTQSPDSLAVSLGERATINCKASESVDTSDNSFIHWYQQKPGQSPKLLIYRSSTLESGVPDRFSGSGSGTDFTLTISSLQAEDVAVYYCQQNYDVPWTFGQGTKVEIKRTVAAPSVFIFPPSDEQLKSGTASVVCLLNNFYPREAKVQWKVDNALQSGNSQESVTEQDSKDSTYSLSSTLTLSKADYEKHKVYACEVTHQGLSSPVTKSFNRGEC
heavy: EVQLLESGGGLVQPGGSLRLSCAASGFSFSSYTMSWVRQAPGKGLEWVATISGGGRDIYYPDSVKGRFTISRDNSKNTLYLQMNSLRAEDTAVYYCVLLTGRVYFALDSWGQGTLVTVSSASTKGPSVFPLAPSSKSTSGGTAALGCLVKDYFPEPVTVSWNSGALTSGVHTFPAVLQSSGLYSLSSVVTVPSSSLGTQTYICNVNHKPSNTKVDKKVEPKSCDKTHTCPPCPAPEAAGGPSVFLFPPKPKDTLMISRTPEVTCVVVDVSHEDPEVKFNWYVDGVEVHNAKTKPREEQYNSTYRVVSVLTVLHQDWLNGKEYKCKVSNKALGAPIEKTISKAKGQPREPQVCTLPPSRDELTKNQVSLSCAVKGFYPSDIAVEWESNGQPENNYKTTPPVLDSDGSFFLVSKLTVDKSRWQQGNVFSCSVMHEALHNHYTQKSLSLSPGK
chain: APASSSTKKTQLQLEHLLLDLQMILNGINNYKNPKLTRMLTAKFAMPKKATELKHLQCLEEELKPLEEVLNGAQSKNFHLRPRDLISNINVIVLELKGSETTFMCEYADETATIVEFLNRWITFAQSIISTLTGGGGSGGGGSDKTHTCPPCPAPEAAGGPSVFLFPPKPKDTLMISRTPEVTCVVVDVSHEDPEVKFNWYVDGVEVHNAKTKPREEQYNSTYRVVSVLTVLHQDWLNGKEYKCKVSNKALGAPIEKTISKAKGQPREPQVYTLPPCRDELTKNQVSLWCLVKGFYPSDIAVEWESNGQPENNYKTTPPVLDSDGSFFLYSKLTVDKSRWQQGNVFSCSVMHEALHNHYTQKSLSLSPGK
notes: One-armed human PD1-targeted human IgG PG LALA with IL2v fused N-terminally to the hinge of the Fc knob chain (non-masked control); also called P1AG3071; P1AG3071-004
Regarding B2, the “EC50 (read off the curve)” value in assay [1] was about 1 nM; in assay [2], about 2 nM. The “fold binding capacity versus the "in line" and knob/hole formats” value in assay [4] is about 2 fold.
